Experimental data: patent publication US20140087995A1 (published 2014)
Numbered stars: 1 amine (or outer) side, 2 acyl side, 3 side chain; on linkers, the order of the positions; unused ones are H or OH. Bridge positions count the residues as written; N and C are the ends. Side chains are listed from the residue outwards. Ends that are not written are not given here. * marks the point of attachment. C20 diacid = O=C(O)CCCCCCCCCCCCCCCCCCC(=O)*; γGlu = O=C(O)[C@H](CCC(=O)[*:2])N[*:1]

T1: human calcitonin receptor (human, UniProt P30988 25-474)
T1 sequence (looked up): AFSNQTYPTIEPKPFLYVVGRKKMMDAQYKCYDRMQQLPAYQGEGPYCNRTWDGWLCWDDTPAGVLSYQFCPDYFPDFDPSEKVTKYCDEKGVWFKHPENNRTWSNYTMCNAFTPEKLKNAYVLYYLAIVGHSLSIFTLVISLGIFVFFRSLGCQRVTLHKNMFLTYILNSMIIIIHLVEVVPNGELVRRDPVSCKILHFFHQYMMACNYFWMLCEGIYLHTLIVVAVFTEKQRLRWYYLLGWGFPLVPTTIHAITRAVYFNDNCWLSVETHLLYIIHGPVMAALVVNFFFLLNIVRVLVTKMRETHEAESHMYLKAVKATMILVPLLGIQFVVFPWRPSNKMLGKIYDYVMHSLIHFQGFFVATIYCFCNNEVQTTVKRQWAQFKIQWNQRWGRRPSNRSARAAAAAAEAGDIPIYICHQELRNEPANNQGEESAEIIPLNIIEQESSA

T2: human amylin receptor (amylin 3(a) receptor: human calcitonin receptor co-expressed with RAMP-3) (human, UniProt P30988 25-474; O60896 24-148, limits assumed)
T2 sequence (looked up) 1: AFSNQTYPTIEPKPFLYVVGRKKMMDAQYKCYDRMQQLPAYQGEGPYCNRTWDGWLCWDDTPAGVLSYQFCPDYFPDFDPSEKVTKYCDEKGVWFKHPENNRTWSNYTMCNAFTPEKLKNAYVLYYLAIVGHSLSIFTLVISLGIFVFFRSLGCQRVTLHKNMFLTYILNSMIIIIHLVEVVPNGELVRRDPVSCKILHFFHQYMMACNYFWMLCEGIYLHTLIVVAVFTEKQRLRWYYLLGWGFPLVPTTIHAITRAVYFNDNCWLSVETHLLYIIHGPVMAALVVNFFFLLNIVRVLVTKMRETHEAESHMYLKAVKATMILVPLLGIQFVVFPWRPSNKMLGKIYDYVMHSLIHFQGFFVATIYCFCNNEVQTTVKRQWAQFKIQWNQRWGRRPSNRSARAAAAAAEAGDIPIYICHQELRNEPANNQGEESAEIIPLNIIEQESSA
T2 sequence (looked up) 2: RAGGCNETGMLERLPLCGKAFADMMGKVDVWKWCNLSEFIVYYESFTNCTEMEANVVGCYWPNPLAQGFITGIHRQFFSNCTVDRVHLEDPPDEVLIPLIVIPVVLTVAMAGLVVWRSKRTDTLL

T3: human amylin 3(a) receptor (human calcitonin receptor co-expressed with RAMP-3) (human, UniProt P30988 25-474; O60896 24-148, limits assumed)
T3 sequence (looked up) 1: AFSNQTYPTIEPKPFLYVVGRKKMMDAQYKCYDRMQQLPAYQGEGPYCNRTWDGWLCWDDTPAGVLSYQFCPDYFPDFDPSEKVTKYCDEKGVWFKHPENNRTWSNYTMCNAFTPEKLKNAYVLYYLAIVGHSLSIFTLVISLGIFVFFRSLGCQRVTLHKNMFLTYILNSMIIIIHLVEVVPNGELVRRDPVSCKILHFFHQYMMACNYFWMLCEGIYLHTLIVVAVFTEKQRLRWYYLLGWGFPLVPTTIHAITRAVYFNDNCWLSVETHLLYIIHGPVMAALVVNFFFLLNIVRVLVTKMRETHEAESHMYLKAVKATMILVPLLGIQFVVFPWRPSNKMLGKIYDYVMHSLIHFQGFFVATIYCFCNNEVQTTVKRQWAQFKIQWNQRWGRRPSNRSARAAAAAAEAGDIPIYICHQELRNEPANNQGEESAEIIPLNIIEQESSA
T3 sequence (looked up) 2: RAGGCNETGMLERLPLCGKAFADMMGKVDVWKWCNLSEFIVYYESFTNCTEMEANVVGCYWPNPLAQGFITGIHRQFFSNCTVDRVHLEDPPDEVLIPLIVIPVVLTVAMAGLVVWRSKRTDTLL


Assays:
[1] = target: T1, human calcitonin receptor; test: cell-based or functional assay
[2] = target: T2, human amylin receptor (amylin 3(a) …); test: cell-based or functional assay
[3] = target: T2, human amylin receptor (amylin 3(a) …); test: SPA competition binding on membranes of Amylin 3(a)/CRE-luc BHK cells, displacement of 125I-rat amylin (Assay V)
Description: (§1) The binding assay was performed using scintillation proximity assay (SPA) beads (RPNQ0001) from PerkinElmer and cell membranes from the Amylin 3(a)/CRE-luc cells (as described in Assay (II)) were used. Membranes were prepared in the following way; the cells were rinsed with PBS and incubated with Versene for approximately 5 min before harvesting. The cells were flushed with PBS and the cell-suspension was centrifuged for 5 min at 1000 rpm. Cells were homogenized (ultrathurrax) in a buffer containing 20 mM Na-HEPES and 10 mM EDTA (pH 7.4) and centrifuged at 20.000 rpm for 15 min. The resulting pellet was resuspended, homogenized and centrifuged (20.000 rpm, 15 min) in a buffer containing 20 mM Na-HEPES and 0.1 mM EDTA (pH 7.4, buffer 2). The resulting pellet was resuspended in buffer 2 and protein concentration was measured (BCA protein Assay, Pierce). The homogenate was kept cold during the whole procedure. The membranes were kept at −80° C. until use. The assay was performed in a 384 well Optiplate (PerkinElmer) in a total volume of 40 ul. Membranes were mixed with SPA beads. Final concentration of membranes 35 ng/μL final and SPA beads was 0.05 mg/well. […] Samples were analyzed on TopCounter™ (Packard). The IC₅₀ was calculated using (one site binding competition analysis) GraphPad Prism5 as a measure of receptor affinity.

[4] = target: T3, human amylin 3(a) receptor (human …); test: cell-based or functional assay
[5] = target: T3, human amylin 3(a) receptor (human …); test: SPA competition vs 125I-rat amylin, membranes of BHK Amylin 3(a)/CRE-luc cells (Assay V)
Description: as §1

| hCTR funct. EC50 [1] | hAmylin-R funct. EC50 [2] | IC50 [3] | Ratio hCT/hAmylin funct. (hCTR EC50 over hAmylin-R EC50) [4] | hAmylin-R funct. EC50 (pM) [4] | IC50 [5] | Binder |
| --- | --- | --- | --- | --- | --- | --- |
| 0.354 nM | 0.069 nM | 0.09 nM | – | – | – | K([γGlu-C20 diacid])CNTATCATQRLAHFLRHSSPNFGAIPSSTNVGPNTY-NH2 (disulfide 2-7; N-terminus assumed; SMILES CC[C@H](C)[C@H](NC(=O)[C@H](C)NC(=O)CNC(=O)[C@H](Cc1ccccc1)NC(=O)[C@H](CC(N)=O)NC(=O)[C@@H]1CCCN1C(=O)[C@H](CO)NC(=O)[C@H](CO)NC(=O)[C@H](Cc1c[nH]cn1)NC(=O)[C@H](CCCNC(=N)N)NC(=O)[C@H](CC(C)C)NC(=O)[C@H](Cc1ccccc1)NC(=O)[C@H](Cc1c[nH]cn1)NC(=O)[C@H](C)NC(=O)[C@H](CC(C)C)NC(=O)[C@H](CCCNC(=N)N)NC(=O)[C@H](CCC(N)=O)NC(=O)[C@@H](NC(=O)[C@H](C)NC(=O)[C@@H]1CSSC[C@H](NC(=O)[C@@H](N)CCCCNC(=O)CC[C@H](NC(=O)CCCCCCCCCCCCCCCCCCC(=O)O)C(=O)O)C(=O)N[C@@H](CC(N)=O)C(=O)N[C@@H]([C@@H](C)O)C(=O)N[C@@H](C)C(=O)N[C@@H]([C@@H](C)O)C(=O)N1)[C@@H](C)O)C(=O)N1CCC[C@H]1C(=O)N[C@@H](CO)C(=O)N[C@@H](CO)C(=O)N[C@H](C(=O)N[C@@H](CC(N)=O)C(=O)N[C@H](C(=O)NCC(=O)N1CCC[C@H]1C(=O)N[C@@H](CC(N)=O)C(=O)N[C@H](C(=O)N[C@@H](Cc1ccc(O)cc1)C(N)=O)[C@@H](C)O)C(C)C)[C@@H](C)O, also called compound 67) |
| – | – | – | 23.1 | 433 pM | 1.14 nM | KCNTATCATQRLANFLRHSSPNFGAIPSSTNVGSNTY (alpha-amino group of N-terminal Lys1 acylated with C20 diacid via linker gGlu-2xOEG; disulfide bridge Cys2-Cys7 and C-terminal amide as in human amylin, also called compound 24) |
